From paper PMC8408865

Molecular target: C-terminal domain of Caenorhabditis elegans KCC-1, wild type, as used in solution (SEC, SEC/MALS) (C. elegans)
Test: SEC

- stoichiometry N: 2
Substance: C-terminal domain of Caenorhabditis elegans KCC-1, wild type, as used in solution (SEC, SEC/MALS) (domain or fragment)
